Laboratory results from patent publication US20060110769A1, “Regulation of novel human prolyl 4-hydroxylases” (Bayer Aktiengesellschaft, priority 2001, published 2006).

Molecular target: mouse hypoxia inducible factor-1 alpha (mouse) (UniProt Q61221)
Test: cell-based or functional assay

mouse hypoxia inducible factor-1 alpha (mouse), sequence (Q61221 whole entry): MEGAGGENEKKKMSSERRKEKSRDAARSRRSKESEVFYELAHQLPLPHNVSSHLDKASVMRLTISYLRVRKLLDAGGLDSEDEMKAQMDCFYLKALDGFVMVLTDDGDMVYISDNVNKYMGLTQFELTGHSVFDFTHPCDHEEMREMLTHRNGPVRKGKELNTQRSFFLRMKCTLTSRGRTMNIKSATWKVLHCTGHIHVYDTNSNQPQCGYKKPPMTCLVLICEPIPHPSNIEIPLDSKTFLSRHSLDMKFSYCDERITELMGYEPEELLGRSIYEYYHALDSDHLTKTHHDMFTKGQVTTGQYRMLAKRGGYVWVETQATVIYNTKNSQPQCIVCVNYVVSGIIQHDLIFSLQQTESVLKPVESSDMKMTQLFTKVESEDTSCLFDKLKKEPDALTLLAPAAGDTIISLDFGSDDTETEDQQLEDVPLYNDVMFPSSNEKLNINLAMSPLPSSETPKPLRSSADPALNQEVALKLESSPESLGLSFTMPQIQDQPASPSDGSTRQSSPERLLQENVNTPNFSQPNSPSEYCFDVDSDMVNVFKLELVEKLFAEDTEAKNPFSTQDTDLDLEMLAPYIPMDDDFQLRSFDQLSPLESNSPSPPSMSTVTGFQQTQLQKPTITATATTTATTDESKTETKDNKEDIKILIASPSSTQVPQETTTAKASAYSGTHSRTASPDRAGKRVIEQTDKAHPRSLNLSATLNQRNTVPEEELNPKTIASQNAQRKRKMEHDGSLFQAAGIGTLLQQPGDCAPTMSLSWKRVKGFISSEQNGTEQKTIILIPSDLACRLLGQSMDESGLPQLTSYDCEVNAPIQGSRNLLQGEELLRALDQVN

Substance: EGLN3, human HIF-prolyl-hydroxylase (from UniProt Q9H6Z9 1-239)
- reduction of the transactivation activity of cotransfected HIF-1 alpha on the hypoxia responsive luciferase reporter (HEK/293 cells, equal amounts of each plasmid): 90%
